Like-named read-outs stand apart in the source and are kept apart here. Values belong to the binder of their own block, whether it stands above or below them. Numbered stars: 1 amine (or outer) side, 2 acyl side, 3 side chain; on linkers, the order of the positions; unused ones are H or OH. Bridge positions count the residues as written; N and C are the ends. Square brackets hold non-standard residues; d marks the D form. Primed or numbered codes have the meaning given here. Ends that are not written are not given here. * marks the point of attachment. Ida = iminodiacetic acid, O=C(CN(CC(=O)[*:3])[*:1])[*:2]; PEG3′ = NH2CH2CH2(OCH2CH2)3CH2CH2CO2H (PEG3 linker); Dip = N[C@H](C(=O)O)C(c1ccccc1)c1ccccc1; Palmitoyl = CCCCCCCCCCCCCCCC(=O)*; β3hF = N[C@H](CC(=O)O)Cc1ccccc1; pGlu = O=C1CC[C@@H](C(=O)O)N1; β3hP = O=C(O)C[C@@H]1CCCN1; Isovaleryl = CC(C)CC(=O)*; Palm = palmitoyl
Key:
Assay in all cases: cell-based or functional assay
[1] = biological target: T1, human ferroportin (SLC40A1) fused in frame with GFP, stably expressed on HEK293 cells (human, UniProt Q9NP59 1-571)
T1 sequence (looked up): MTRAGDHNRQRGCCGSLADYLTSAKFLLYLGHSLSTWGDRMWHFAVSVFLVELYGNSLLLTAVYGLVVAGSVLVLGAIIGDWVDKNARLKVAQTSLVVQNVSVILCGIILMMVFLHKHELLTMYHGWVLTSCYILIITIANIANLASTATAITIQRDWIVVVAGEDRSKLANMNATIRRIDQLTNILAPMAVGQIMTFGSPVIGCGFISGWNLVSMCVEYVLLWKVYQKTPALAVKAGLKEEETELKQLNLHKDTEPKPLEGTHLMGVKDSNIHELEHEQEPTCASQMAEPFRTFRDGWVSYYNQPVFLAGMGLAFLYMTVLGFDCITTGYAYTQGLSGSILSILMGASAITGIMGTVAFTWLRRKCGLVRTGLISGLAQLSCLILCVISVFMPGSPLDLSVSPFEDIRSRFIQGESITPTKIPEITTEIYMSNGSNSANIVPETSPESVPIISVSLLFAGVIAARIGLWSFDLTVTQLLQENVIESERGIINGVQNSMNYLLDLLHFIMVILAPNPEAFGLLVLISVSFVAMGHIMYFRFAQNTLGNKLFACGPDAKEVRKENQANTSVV

[2] = biological target: T1, human ferroportin (SLC40A1) fused in …; remark: listed apart in the source
[3] = biological target: T1, human ferroportin (SLC40A1) fused in …; remark: listed apart in the source
[4] = biological target: T2, human ferroportin (SLC40A1) fused in frame with GFP, stably expressed on HEK293 cells (human, UniProt Q9NP59 1-571); remark: listed apart in the source
T2 sequence (looked up): T1 sequence (looked up)

[5] = biological target: T1, human ferroportin (SLC40A1) fused in …; remark: listed apart in the source
[6] = biological target: T1, human ferroportin (SLC40A1) fused in …; remark: listed apart in the source
[7] = biological target: T1, human ferroportin (SLC40A1) fused in …; remark: listed apart in the source
[8] = biological target: T1, human ferroportin (SLC40A1) fused in …; remark: listed apart in the source

Binder: H-DTHFPCLIF-NH2 [Hy-DTHFPCLIF-NH2]
EC50 (nM), ferroportin internalization/degradation assay [1]: > 10000 nM

Binder: H-DTHFPCLF-NH2 (also: homodimer, link between subunits not given here) [(Hy-DTHFPCLF-NH2)2]
Potency EC50 (nM), ferroportin internalization/degradation assay [5]: 297 nM

Binder: Isovaleryl-DTHFPCIKFAA-NH2 (also: homodimer, linkage of subunits not given here) [(isovaleric acid-DTHFPCIKFAA-NH2)2]
Potency EC50 (nM), ferroportin internalization/degradation assay [6]: 47 nM

Binder: H-DTHFPICIF-NH2 (also: homodimer, link between subunits not given here) [(Hy-DTHFPICIF-NH2)2]
Potency EC50 (nM), ferroportin internalization/degradation assay [7]: 146 nM

Binder: DTHFPICIFK (N-terminal isovaleric acid; Palm on the side chain of Lys 10; C-terminal amide) [(isovaleric acid-DTHFPICIFK(Palm)-NH2)2]
Potency EC50 (nM), ferroportin internalization/degradation assay [6]: 580 nM

Binder: H-DTHFPCQIF-NH2 [Hy-DTHFPCQIF-NH2]
EC50 (nM), ferroportin internalization/degradation assay [1]: > 1000 nM

Binder: H-DTHFPCRIF-NH2 [Hy-DTHFPCRIF-NH2]
EC50 (nM), ferroportin internalization/degradation assay [1]: > 1000 nM

Binder: H-DTHFPCEIF-NH2 [Hy-DTHFPCEIF-NH2]
EC50 (nM), ferroportin internalization/degradation assay [1]: > 1000 nM

Binder: [Ida]TH[Dip][β3hP]RCR[β3hF]-{PEG3′-Palm} (also: homodimer, linkage not given here) [(Ida-TH-Dpa-bhPro-RCR-bhPhe-PEG3-Palm)2]
Potency EC50 (nM), ferroportin internalization/degradation assay [7]: 31 nM

Binder: Isovaleryl-DTHFPCIK(Palmitoyl)F-NH2 (also: homodimer, linkage of subunits not given here) [(isovaleric acid-DTHFPCIK(Palm)-F-NH2)2]
Potency EC50 (nM), ferroportin internalization/degradation assay [6]: 294 nM

Now from value to binder:

EC50 (nM) (n > 3), ferroportin internalization/degradation assay [2]: 14 nM
EC50 (nM) (n > 3), ferroportin internalization/degradation assay [3]: 14 nM
B1: (isovaleric acid-DTHFPCIKF)2[Lys]K(iso-Glu-Palm)-NH2 (peptide)
peptide: DTHFPCIKF
modifications: N-terminal isovaleric acid on each subunit; the two subunits are joined at their C-termini through a [Lys] linker, which is followed by K(iso-Glu-Palm)-NH2

EC50 (nM), ferroportin internalization/degradation assay [1]: > 1000 nM
Binder: H-DTHFPCRIFGPRSRGWVCK-NH2 (disulfide 6-18 (inferred)) [Hy-DTHFPCRIFGPRSRGWVCK-NH2]

Potency EC50 (nM), ferroportin internalization/degradation assay (loss of GFP fluorescence) [4]: 9 nM
B2: Cmpd6: Isovaleric acid-DTHFPCIIF-[Sarc]-PHSKG-[N-MeTrp]-VC-NH2 (peptide)
peptide: DTHFPCIIFXPHSKGWVC
modifications: N-terminal isovaleric acid; sarcosine [Sarc] at position 10; N-methyl-tryptophan [N-MeTrp] at position 16; C-terminal amide (-NH2)

EC50 (nM), ferroportin internalization/degradation assay [1]: > 1000 nM
Binder: Isovaleryl-DTHFPCRRFGPRSKGWVCK-NH2 (disulfide 6-18 (inferred)) [Isovaleric acid-DTHFPCRRFGPRSKGWVCK-NH2]

EC50 (nM) (n > 3), ferroportin internalization/degradation assay [2]: 4 nM
EC50 (nM) (n > 3), ferroportin internalization/degradation assay [3]: 4 nM
Binder: Isovaleryl-DTHFPCIRFK-{K(γGlu-Palm)-NH2} (also: dimer: two subunits joined at C-termini through a Lys linker) [(Isovaleric acid-DTHFPCIRF)2[Lys]-K(iso-Glu-Palm)-NH2]

EC50 (nM) (n > 3), ferroportin internalization/degradation assay [3]: 16 nM
B3: (Isovaleric acid-DTHFPCIKF)2[Lys]-Lys(Palm)-NH2 (peptide)
peptide: DTHFPCIKF
modifications: N-terminal isovaleric acid on each subunit; the two subunits are joined at their C-termini through a [Lys] linker, which is followed by Lys(Palm)-NH2

percent at the stated concentration (printed in the Potency EC50 column), ferroportin internalization/degradation assay [5]: 31 % at 10 uM
Binder: [pGlu]THFPCRKF-NH2 (also: homodimer, linkage of subunits not given here) [([pGlu]-THFPCRKF-NH2)2]

Potency EC50 (nM), ferroportin degradation [8]: > 10000 nM
Binder: FICIPFHTD (all nine residues are D-amino acids (retro inverse); C-terminal amide) [RI-Mini Hepcidin, Hy-DPhe-DIle-DCys-DIle-DPro-DPhe-DHis-DThr-DAsp-NH2]

EC50 (nM) (n > 3), ferroportin internalization/degradation assay [2]: 24 nM
EC50 (nM) (n > 3), ferroportin internalization/degradation assay [3]: 24 nM
B4: (isobutyric acid-DTHFPCIKF)2[Lys]K(iso-Glu-Palm)-NH2 (peptide)
peptide: DTHFPCIKF
modifications: N-terminal isobutyric acid on each subunit; the two subunits are joined at their C-termini through a [Lys] linker, which is followed by K(iso-Glu-Palm)-NH2

Potency EC50 (nM), ferroportin degradation [8]: 712 nM
Binder: H-DTHFPICIF-NH2 [Mini-Hepcidin 1-9, Hy-DTHFPICIF-NH2]

EC50 (nM) (n > 3), ferroportin internalization/degradation assay [2]: 30 nM
EC50 (nM) (n > 3), ferroportin internalization/degradation assay [3]: 30 nM
B5: (Isovaleric acid-DTHFPCIKF)2[Lys]-NH2 (peptide)
peptide: DTHFPCIKF
modifications: N-terminal isovaleric acid on each subunit; the two subunits are joined at their C-termini through a [Lys]-NH2 linker

EC50 (nM), ferroportin internalization/degradation assay [1]: > 1000 nM
B6: Hy-[pGlu]-THFPCRKF-NH2 (peptide)
peptide: [pGlu]THFPCRKF-NH2
SMILES: C[C@@H](O)[C@H](NC(=O)[C@@H]1CCC(=O)N1)C(=O)N[C@@H](Cc1c[nH]cn1)C(=O)N[C@@H](Cc1ccccc1)C(=O)N1CCC[C@H]1C(=O)N[C@@H](CS)C(=O)N[C@@H](CCCNC(=N)N)C(=O)N[C@@H](CCCCN)C(=O)N[C@@H](Cc1ccccc1)C(N)=O
